This experiment addresses EcoR124I core methyltransferase (HsdM2HsdS1) (not stated (hsd genes of the IncFIV plasmid R124, carried in E. coli)) (UniProt P10484).

The results in this text go back to paper PMC2602864.

Sequence of UniProt P10484 (P10484 whole entry, chain 1 of 2): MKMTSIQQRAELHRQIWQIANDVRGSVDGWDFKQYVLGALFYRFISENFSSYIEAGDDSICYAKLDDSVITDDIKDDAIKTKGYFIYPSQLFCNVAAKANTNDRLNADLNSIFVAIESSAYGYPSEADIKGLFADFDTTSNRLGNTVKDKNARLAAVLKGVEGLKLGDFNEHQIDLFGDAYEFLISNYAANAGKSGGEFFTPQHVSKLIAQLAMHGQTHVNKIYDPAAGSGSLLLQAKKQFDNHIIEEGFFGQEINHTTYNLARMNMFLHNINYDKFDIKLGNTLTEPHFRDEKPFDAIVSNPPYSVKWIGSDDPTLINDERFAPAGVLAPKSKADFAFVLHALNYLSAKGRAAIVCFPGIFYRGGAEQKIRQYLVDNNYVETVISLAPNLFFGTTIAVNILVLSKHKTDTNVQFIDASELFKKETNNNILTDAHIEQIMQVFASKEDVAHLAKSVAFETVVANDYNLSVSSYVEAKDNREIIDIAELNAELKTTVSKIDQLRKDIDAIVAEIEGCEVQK
Sequence of UniProt P10484 (P10485 whole entry, chain 2 of 2, further chain): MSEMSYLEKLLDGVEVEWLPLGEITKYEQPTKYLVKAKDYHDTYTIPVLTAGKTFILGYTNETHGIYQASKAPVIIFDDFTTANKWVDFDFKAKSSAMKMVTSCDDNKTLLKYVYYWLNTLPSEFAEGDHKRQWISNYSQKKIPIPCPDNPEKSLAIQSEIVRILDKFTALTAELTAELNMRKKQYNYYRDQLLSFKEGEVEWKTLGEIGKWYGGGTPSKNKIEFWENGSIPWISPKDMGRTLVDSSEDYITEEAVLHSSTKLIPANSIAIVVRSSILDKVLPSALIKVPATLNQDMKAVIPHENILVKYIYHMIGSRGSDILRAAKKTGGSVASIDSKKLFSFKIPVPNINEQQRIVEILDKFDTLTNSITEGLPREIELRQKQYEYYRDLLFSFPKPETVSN

B1: EcoR124I HsdR subunit, wild type (enzyme)
chain: MTHQTHTIAESNNFIVLDKYIKAEPTGDSYQSESDLERELIQDLRNQGYEFISVKSQSAMLANVREQLQNLNGVVFNDSEWRRFTEQYLDNPSDGILDKTRKIHIDYICDFIFDDERLENIYLIDKKNLMRNKVQIIQQFEQAGSHANRYDVTILVNGLPLVQIELKKRGVAIREAFNQIHRYSKESFNSENSLFKYLQLFVISNGTDTRYFANTTKRDKNSFDFTMNWAKSDNTLIKDLKDFTATCFQKHTLLNVLVNYSVFDSSQTLLVMRPYQIAATERILWKIKSSFTAKNWSKPESGGYIWHTTGSGKTLTSFKAARLATELDFIDKVFFVVDRKDLDYQTMKEYQRFSPDSVNGSENTAGLKRNLDKDDNKIIVTTIQKLNNLMKAESDLPVYNQQVVFIFDECHRSQFGEAQKNLKKKFKRYYQFGFTGTPIFPENALGSETTASVFGRELHSYVITDAIRDEKVLKFKVDYNDVRPQFKSLETETDEKKLSAAENQQAFLHPMRIQEITQYILNNFRQKTHRTFPGSKGFNAMLAVSSVDAAKAYYATFKRLQEEAANKSATYKPLRIATIFSFAANEEQNAIGEISDETFDTSAMDSSAKEFLDAAIREYNSHFKTNFSTDSNGFQNYYRDLAQRVKNQDIDLLIVVGMFLTGFDAPTLNTLFVDKNLRYHGLMQAFSRTNRIYDATKTFGNIVTFRDLERSTIDAITLFGDKNTKNVVLEKSYTEYMEGFTDAATGEAKRGFMTVVSELEQRFPDPTSIESEKEKKDFVKLFGEYLRAENILQNYDEFATLKALQQIDLSDPVAVEKFKAEHYVDDEKFAELQTIRLPADRKIQDYRSAYNDIRDWQRREKEAEKKEKSTTDWDDVVFEVDLLKSQEINLDYILGLIFEHNRQNKGKGEMIEEVKRLIRSSLGNRAKEGLVVDFIQQTNLDDLPDKASIIDAFFTFAQREQQREAEALIKEENLNEDAAKRYIRTSLKREYATENGTELNETLPKLSPLNPQYKTKKQAVFQKIVSFIEKFKGVGGKI
B1: the mean lifetime of a DNA translocation event, R1 complex (one HsdR on the MTase), magnetic tweezers was 0.95 s.
